The text below walks through data of paper PMC6373145.

As a reminder, the stoichiometry N is a count of units in the complex or per binding partner.

The target of the experiment is T1, recombinant GST-tagged human occludin (human), Q16625.
T1 chain: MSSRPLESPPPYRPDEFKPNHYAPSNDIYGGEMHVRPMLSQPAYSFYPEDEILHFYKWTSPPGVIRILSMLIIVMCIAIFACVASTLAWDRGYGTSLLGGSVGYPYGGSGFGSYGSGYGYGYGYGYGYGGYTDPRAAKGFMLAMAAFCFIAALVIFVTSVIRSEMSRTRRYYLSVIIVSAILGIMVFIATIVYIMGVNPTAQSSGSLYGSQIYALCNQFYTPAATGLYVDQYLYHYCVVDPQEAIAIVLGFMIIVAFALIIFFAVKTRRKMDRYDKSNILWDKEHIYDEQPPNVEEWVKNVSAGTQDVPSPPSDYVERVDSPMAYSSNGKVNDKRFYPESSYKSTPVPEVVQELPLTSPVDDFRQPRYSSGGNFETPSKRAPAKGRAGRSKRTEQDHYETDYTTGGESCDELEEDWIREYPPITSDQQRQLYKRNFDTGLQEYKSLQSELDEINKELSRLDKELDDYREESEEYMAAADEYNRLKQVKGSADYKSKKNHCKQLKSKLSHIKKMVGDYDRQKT
The experiment is described as follows: SDS-PAGE and immunoblot; recombinant GST-occludin in 50 mM HEPES pH 7.4, 16 h at 37 °C, with or without purified HtrA; 12% SDS-PAGE, blots with α-occludin H-279 and α-GST. Conditions: remark: other sources report otherwise.

B1: recombinant GST-tagged human occludin, Q16625 1-522 (natural protein)
chain: T1 chain
As to B1, the stoichiometry N is 2.
